Results as given in patent US20160200782A1 (MOERAE MATRIX, published 2016).

T1: SAPK4(h) (human, UniProt O15264 1-365)
T1 sequence (looked up): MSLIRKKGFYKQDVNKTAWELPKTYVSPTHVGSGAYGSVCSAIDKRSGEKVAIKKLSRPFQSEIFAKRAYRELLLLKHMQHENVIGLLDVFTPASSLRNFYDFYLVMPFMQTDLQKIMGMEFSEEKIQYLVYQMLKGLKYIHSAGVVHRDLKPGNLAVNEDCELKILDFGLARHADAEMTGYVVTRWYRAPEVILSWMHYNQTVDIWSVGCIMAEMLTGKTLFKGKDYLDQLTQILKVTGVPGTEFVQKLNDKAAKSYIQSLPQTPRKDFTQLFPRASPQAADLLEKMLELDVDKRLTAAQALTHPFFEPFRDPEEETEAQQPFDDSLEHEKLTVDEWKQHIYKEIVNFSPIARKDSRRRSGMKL

T2: Rse(h) (human, UniProt Q06418 451-890, limits assumed)
T2 sequence (looked up): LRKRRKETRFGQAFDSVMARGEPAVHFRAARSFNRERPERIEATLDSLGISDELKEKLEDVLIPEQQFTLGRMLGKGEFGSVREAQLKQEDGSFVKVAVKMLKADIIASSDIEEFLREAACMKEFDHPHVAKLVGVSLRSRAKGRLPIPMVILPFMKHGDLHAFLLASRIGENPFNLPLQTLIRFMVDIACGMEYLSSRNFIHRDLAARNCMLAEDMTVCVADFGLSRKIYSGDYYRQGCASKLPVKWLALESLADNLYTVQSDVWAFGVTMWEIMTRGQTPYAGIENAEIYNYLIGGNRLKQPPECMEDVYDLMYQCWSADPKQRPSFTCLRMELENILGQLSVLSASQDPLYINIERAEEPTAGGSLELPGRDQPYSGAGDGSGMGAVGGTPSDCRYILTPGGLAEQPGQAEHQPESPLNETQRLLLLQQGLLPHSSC

T3: MuSK(h) (human, UniProt O15146 517-869, limits assumed)
T3 sequence (looked up): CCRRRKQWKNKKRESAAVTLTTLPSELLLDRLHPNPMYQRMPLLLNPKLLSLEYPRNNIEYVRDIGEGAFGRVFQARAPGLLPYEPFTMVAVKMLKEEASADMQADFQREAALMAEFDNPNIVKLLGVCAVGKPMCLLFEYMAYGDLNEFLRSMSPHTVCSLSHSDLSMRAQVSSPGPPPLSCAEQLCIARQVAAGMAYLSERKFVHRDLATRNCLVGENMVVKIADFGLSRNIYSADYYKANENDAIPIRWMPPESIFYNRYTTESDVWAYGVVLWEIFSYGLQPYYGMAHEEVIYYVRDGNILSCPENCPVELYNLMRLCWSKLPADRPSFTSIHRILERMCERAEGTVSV

T4: Aurora-A(h) (human, UniProt O14965 1-403)
T4 sequence (looked up): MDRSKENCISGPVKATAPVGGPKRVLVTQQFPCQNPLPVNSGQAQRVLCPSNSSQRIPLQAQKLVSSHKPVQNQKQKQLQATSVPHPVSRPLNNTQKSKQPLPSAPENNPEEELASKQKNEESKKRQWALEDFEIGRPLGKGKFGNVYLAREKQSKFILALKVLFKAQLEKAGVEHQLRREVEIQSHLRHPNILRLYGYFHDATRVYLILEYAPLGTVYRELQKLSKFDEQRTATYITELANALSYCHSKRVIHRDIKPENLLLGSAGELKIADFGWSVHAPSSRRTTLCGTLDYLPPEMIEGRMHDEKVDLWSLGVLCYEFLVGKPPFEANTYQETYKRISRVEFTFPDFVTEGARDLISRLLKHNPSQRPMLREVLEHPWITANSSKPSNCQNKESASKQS


Columns and labels:
Assay in all cases: cell-based or functional assay
cSRC(h) = cSRC(h) (human, UniProt P12931 1-536, limits assumed)
EGFR(L861Q)(h) = EGFR(L861Q)(h) (human, UniProt P00533 696-1210, limits assumed)
GSK3β(h) = GSK3β(h) (human, UniProt P49841 1-420)
SAPK4(h) = target: T1, SAPK4(h)
Rse(h) = target: T2, Rse(h)
MuSK(h) = target: T3, MuSK(h)
PASK(h) = PASK(h) (human, UniProt Q96RG2 879-1323, limits assumed)
WNK3(h) = WNK3(h) (human, UniProt Q9BYP7 1-434, limits assumed)
IRAK1(h) = IRAK1(h) (human, UniProt P51617 194-712, limits assumed)
PDGFRα(V561D)(h) = PDGFRα(V561D)(h) (human, UniProt P16234 550-1089, limits assumed)
Aurora-A(h) = target: T4, Aurora-A(h)
FGFR1(h) = FGFR1(h) (human, UniProt P11362 456-765, limits assumed)
Also: test concentration or dose not given here.

Binder | % activity (cSRC(h)) [%] | % activity (EGFR(L861Q)(h)) [%] | % activity (GSK3β(h)) [%] | % activity (SAPK4(h)) [%] | % activity (Rse(h)) [%] | % activity (MuSK(h)) [%] | % activity (PASK(h)) [%] | % activity (WNK3(h)) [%] | % activity (IRAK1(h)) [%] | % activity (PDGFRα(V561D)(h)) [%] | % activity (Aurora-A(h)) [%] | % activity (FGFR1(h)) [%]
FAKLAARLYRKALARQLGVAA [MMI-0300] | 26 | 25 | 205 | 96 | 88 | 93 | 29 | 77 | 95 | 82 | 92 | 55
KAFAKLAARLYRKALARQLGVAA [MMI-0400] | 14 | 22 | 202 | 91 | 89 | 93 | 28 | 74 | 93 | 100 | 119 | 59
